Data from doi:10.1101/197848.

Molecular target: Xenopus Smc3R626C-Halo (subunit of the hinge-substituted recombinant tetramer, not crosslinked) (Xenopus) (UniProt O93309)
Test: cross-linking

- crosslinking efficiency: 40%
Substance: Xenopus Smc1D566C (subunit of the hinge-substituted recombinant tetramer) (from UniProt O93308 1-1232) (natural protein)
